Measured values reported in the supplement of paper PMC9170038.

System: MS2 coat protein
Assay: apparent KD of MS2 coat protein; designed switch direction (-1 OFF switch, 1 ON switch): -1; higher = weaker reporter binding
Method in brief: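 For each design, the apparent KD is the median over clusters of curves fitted to normalised cluster fluorescence. Clusters held RNA switches with common flanks, transcribed on Illumina chips by stalled E. coli RNA polymerase. These were titrated with SNAP-549-labelled MS2 coat protein, doubling from 0.7 or 1.5 nM to 3 µM, without input, with 200 uM small-molecule ligand, or with an oligonucleotide input.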

[1] = input ligand: microRNA oligo, concentration not stated
[2] = Eterna round: R95, input ligand: FMN 200 uM
[3] = Eterna round: R95, input ligand: microRNA oligo, concentration not stated
[4] = Eterna round: R95, input ligand: none

Sequence	apparent KD of MS2 coat protein (input ligand: FMN 200 uM)	apparent KD of MS2 coat protein [1]	apparent KD of MS2 coat protein (input ligand: none)	apparent KD of MS2 coat protein [2]	apparent KD of MS2 coat protein [3]	apparent KD of MS2 coat protein [4]
UAGACCUCGUCAGGAUAUCCAGGUUCUUCGCCCGGAGAAGGGACAUGAGGAUCACCCAUGUAGGAGAGCAUCGCUGUCGAGCAA [Redixeri] (Eterna round: R96, puzzle: Exclusion NG 1)	19.3 nM	11.5 nM	18.3 nM	–	–	–
AGUAGAUCUACGCUUGCGUGGAUCUGCUAGGCAGGUGUUACAUGAGGAUCACCCAUGUCCUCAUUUGUUCGUCUUAU [JL turnoff v2 99.17] (puzzle: Sensor v3, turn-off variant 2)	–	–	–	378 nM	153 nM	604 nM
AAGAACUUAGGAUAUACAUGAGGAUCACCCAUGUAGCUUCACUUGGGCCUGAGCCCGUGUAGAAGGAAGAAAAU [Arge] (Eterna round: R96, puzzle: Exclusion 3)	68.3 nM	47.6 nM	73.5 nM	–	–	–
ACGUACUCUGUAGGAUAUCGAUGAUGCAUGAUUCGAGAAGGACAUGAGGAUCACCCAUGUUUCAAAAGCAUACUAUGUGUAGUA [Design #2] (Eterna round: R96, puzzle: Exclusion NG 1)	44.4 nM	13.6 nM	20.9 nM	–	–	–
CUAGCUUCGGCUAGUACAAGCUUUUUGCUCGUCUUAUUAACAUGAGGAUCACCCAUGUACAAGAGACCUCAUGUAUU [Sensor v3 - turn-off variant 2 - 10] (puzzle: Sensor v3, turn-off variant 2)	–	–	–	188 nM	14.6 nM	249 nM
ACAAGCUUAAUCAGUAUGAACAUGAGGAUCACCCAUGUAAAAGGGAAGACAAUUGGGUUAUUUAAAGCUCGUCUUAU [JR_STOV1_Sub016] (Eterna round: R97, puzzle: Sensor, turn-off variant 1)	57.6 nM	–	67.2 nM	–	–	–
CACCGUUACUGAGGAUAUCGUACAUGAGGAUCACCCAUGUAAUAAAUGAGAAUUUCGGAUGUAUGCGAGAAGGCAGGAAUCGGC [Ostracism 36 - Jieux - Exclusion NG 2] (Eterna round: R96, puzzle: Exclusion NG 2)	31.6 nM	19.5 nM	32.2 nM	–	–	–
GAUGUGGGUUUCCGGAGGAACAUGAGGAUCACCCAUGUAGAAGUUGGAGGGAUAACGCUUUUUGCUCGUUACACGUG [JR_SV3TOV1_Sub055] (puzzle: Sensor v3, turn-off variant 1)	–	–	–	178 nM	170 nM	221 nM
GAUCAUGCAGGAUAUACAUGGAACAUGAAAACAUGAAUUUCACAUGAGGAUCACCCAUGUAGAAGGGCAUGAUC [Omei Ex2 A12] (Eterna round: R97, puzzle: Exclusion 2)	54.2 nM	–	579 nM	–	–	–
UAGAAACAUGAGGAUCACCCAUGUGAGGAUAUGAAAAAGAAAAGAAAAGAAAGAAGAAUCAGAAGGCACAAAGU [salish99-ex1_r3_087] (puzzle: Exclusion 1)	–	–	–	30.5 nM	27.2 nM	32.3 nM
UUAGAAAUGUUAGGAUAUUAAUAUUUUUUUAGUAUGAUCUACAUGAGGAUCACCCAUGUUAAUAUUAAGAAGGAACAUUUUAUU [JR_ExcNG2_Sub099] (Eterna round: R96, puzzle: Exclusion NG 2)	–	71.5 nM	–	–	–	–
GGCAUCGGAGGAUAUAUUUAUGGUGAUACCCGAAGCUUUCUACUUGAGGAUCACCCAAGUAGAAGGCCGAUGCC [jl-ex2.4.82 ViennaUCT mod] (Eterna round: R97, puzzle: Exclusion 2)	17.4 nM	–	10.9 nM	–	–	–
ACUGGUGCAGGAUAUACAAUCGUGCUUCGGCACGUAAGGUCACAUGAGGAUCACCCAUGUAGAAGGGCACCAGU [E2/2-D1] (Eterna round: R97, puzzle: Exclusion 2)	177 nM	–	26.2 nM	–	–	–
GCACUGCGAGGAUAUACAUGAGGAUCACCCAUGUGUCGGCAGACUUGUUUGGUCUAAGGUAGAAGGCGCGUAAA [JR_Ex3_Sub003] (Eterna round: R97, puzzle: Exclusion 3)	145 nM	–	39.7 nM	–	–	–
GUAUAACAUGUAGGAUAUGCAUGGCAAAGCUAUGCAGAAGGACAUGAGGAUCACCCAUGUAAUAGCGUCUGCGUACAGAUGCAA [Mat - Exclusion NG 1 - Mod of JL - D92] (Eterna round: R96, puzzle: Exclusion NG 1)	165 nM	31 nM	33.9 nM	–	–	–
CAGUACUGAGGAUAUACAUGAGGAUCACCCAUGUGGUUUAGUGCACGCGUACGUGUACGUAGAAGGCAGUACUG [JL 3.27 m8] (Eterna round: R97, puzzle: Exclusion 3)	78.3 nM	–	18.9 nM	–	–	–

Sequence	apparent KD of MS2 coat protein (input ligand: FMN 200 uM)	apparent KD of MS2 coat protein [1]	apparent KD of MS2 coat protein (input ligand: none)	apparent KD of MS2 coat protein [2]	apparent KD of MS2 coat protein [3]	apparent KD of MS2 coat protein [4]
UGUACGAUGCGUGCUGACAUGCGUCGUGCAGCAGGUGGAACAUGAGGAUCACCCAUGUCCUCAUUUGCUCGUCUUAU [Mat - Sensor v3 - Turn-off var 2 - D21] (Eterna round: R96, puzzle: Sensor v3, turn-off variant 2)	35.1 nM	104 nM	39.1 nM	–	–	–
CUCCGGCGUGUAGGAUAUGGAUCCGAUUAGGAUCCAGAAGGACAUGAGGAUCACCCAUGUACAUGUAAACAGUCGUCACCGGGC [salish99_ExNG1_r04_206] (Eterna round: R96, puzzle: Exclusion NG 1)	75.9 nM	14 nM	18.1 nM	–	–	–
GGAUCGAGUGUGAGGAUAUACCACUGGAUACAGUGGUAGAAGGCACAUGAGGAUCACCCAUGUCCUUACGAUCC [Fiskers BMX 4 - 46] (puzzle: Brourd's mod of Exclusion 4)	–	–	–	–	66 nM	–
GGAGGACGAGCAGGAUAUUUUCACAUGAGGAUCACCCAUGUGUACUCAGGGUAAUCCUCCGCCGAAAAGAAGGGUUCGGAAUAA [Mat - Exclusion NG 2 - Mod of JL - D81] (Eterna round: R96, puzzle: Exclusion NG 2)	39.8 nM	27.8 nM	74.1 nM	–	–	–
GAAUAGCAAGCGAGAUCCCACAUGAGGAUCACCCAUGUGCUCGUCUUAUAAAGUACUGUGACGAAAGUCACGGUACA [Mat - Sensor, turn-off var - Eli Mod - D12] (Eterna round: R97, puzzle: Sensor, turn-off variant 1)	14.6 nM	–	17.8 nM	–	–	–
GGAGGUAUUUAGGAUAUGAUGUACGACGCAGGUUCAGAAGGGAGUACAUGAGGAUCACCCAUGUGGCCUCAUCC [Eternabot (L2) Solution 47] (Eterna round: R97, puzzle: Exclusion 6)	1200 nM	–	2010 nM	–	–	–
ACAUGUCUUGUAGGAUAUAGUUGACAUGAGGAUCACCCAUGUUGAUUCAUGUCUAUCGAAAGGGACUAGAAGGACGAGAAUAUG [Ex NG2 #16] (Eterna round: R96, puzzle: Exclusion NG 2)	87.5 nM	20 nM	32.2 nM	–	–	–
GUGUAGCAAGGAUAUACAUGAGGAUCACCCAUGUGAAUAAGAUAGAAUAAGAUAAAGUGUAGAAGGUGCAGUGU [Excluse me!!! 8 - Jieux - Exclusion 3] (Eterna round: R96, puzzle: Exclusion 3)	44.9 nM	31.5 nM	41.6 nM	–	–	–
CUACCCUCAGGAUAUUUUGCACUGUACAUGAGGAUCACCCAUGUGACGUCUGUUAAUCAAAGAGAAGGGAGAGGUG [Eternabot (L1) Solution 27] (Eterna round: R97, puzzle: Exclusion 5)	19.7 nM	–	25.1 nM	–	–	–
GGUCCUGAUGAUUUCCUAUACAUGAGGAUCACCCAUGUAUGUUUAUUUUGUUUUUAGCUUUUUGGUCGUCAAUAAUA [Mod-Hoo-honey-3] (Eterna round: R97, puzzle: Sensor, turn-off variant 1)	43.3 nM	–	43.4 nM	–	–	–
ACAUGAGGAUCACCCAUGUUUGGCUGGUUCUCUCCGGCUGUUGAGGAUAUAGUCCGGUAUCCGCGCUAGAAGGUGAGGGCUGGC [Aenatbe mod 7] (Eterna round: R96, puzzle: Exclusion NG 3)	13.5 nM	15.8 nM	24.2 nM	–	–	–
GACGAAAGAGGAUAUACCGUACGACCCUCGUCAGGGAUCCGACAUGAGGAUCACCCAUGUAGAAGGCUUGCGUC [Eternabot (Original) Solution 25] (Eterna round: R97, puzzle: Exclusion 2)	763 nM	–	200 nM	–	–	–
UAAAAGGCAGGAUAUGCAGAAAAGGAAACUUUUCAAGAAUGACAUGAGGAUCACCCAUGUAGAAGGGCCUUUUA [Alacar Attempt 3] (Eterna round: R97, puzzle: Exclusion 2)	15.5 nM	–	16.2 nM	–	–	–
GGAUCGAAUGUGAGGAUAUGCUGGUCCUUGGAUCAGCAGAAGGCACAUGAGGAUCACCCAUGUGAUCAAGAUCC [Eli bmx4 4.77] (Eterna round: R97, puzzle: Brourd's mod of Exclusion 4)	58.3 nM	–	910 nM	–	–	–
GCACGGUAAGUGAGGAUAUACCUCUGGAUACAGAGGUAGAAGGCACAUGAGGAUCACCCAUGUUCCUGCCGUGC [Fiskers BMX 4 - 89] (puzzle: Brourd's mod of Exclusion 4)	–	–	–	–	15.9 nM	–
UAUUAGCAAGCGAGAUCCCACAUGAGGAUCACCCAUGUGCUCGUGCAUCCAGAAUUACUGGGUGCAGCUCGUCUUAU [Winner reversed engineered 12] (Eterna round: R97, puzzle: Sensor, turn-off variant 1)	14.9 nM	–	14.7 nM	–	–	–
